Assay results published in patent CN117736312A (SHANGHAI BOVAX BIOLOGICAL SCIENCE & TECH CO LTD, dated 2024).

Columns and labels:
Experiment in all cases: sandwich ELISA (rabbit anti-L1 capture)
[1] = biological target: T1, HPV45L1 (human papillomavirus type 45, UniProt P36741 30-539)
T1 sequence: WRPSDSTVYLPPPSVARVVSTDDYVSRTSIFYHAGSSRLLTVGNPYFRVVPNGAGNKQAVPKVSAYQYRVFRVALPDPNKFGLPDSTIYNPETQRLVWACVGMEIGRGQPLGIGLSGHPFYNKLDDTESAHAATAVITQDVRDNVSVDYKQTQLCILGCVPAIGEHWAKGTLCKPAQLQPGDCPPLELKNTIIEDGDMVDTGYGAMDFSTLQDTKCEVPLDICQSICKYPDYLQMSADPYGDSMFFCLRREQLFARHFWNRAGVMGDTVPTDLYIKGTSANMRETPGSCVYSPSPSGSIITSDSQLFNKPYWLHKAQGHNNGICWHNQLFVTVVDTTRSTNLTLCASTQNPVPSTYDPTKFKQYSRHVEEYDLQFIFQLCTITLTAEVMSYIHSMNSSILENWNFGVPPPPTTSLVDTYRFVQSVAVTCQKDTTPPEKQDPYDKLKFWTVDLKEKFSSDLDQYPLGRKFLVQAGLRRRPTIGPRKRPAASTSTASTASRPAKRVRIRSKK

[2] = biological target: T2, HPV16L1 (human papillomavirus type 16, UniProt P03101 1-505)
T2 sequence: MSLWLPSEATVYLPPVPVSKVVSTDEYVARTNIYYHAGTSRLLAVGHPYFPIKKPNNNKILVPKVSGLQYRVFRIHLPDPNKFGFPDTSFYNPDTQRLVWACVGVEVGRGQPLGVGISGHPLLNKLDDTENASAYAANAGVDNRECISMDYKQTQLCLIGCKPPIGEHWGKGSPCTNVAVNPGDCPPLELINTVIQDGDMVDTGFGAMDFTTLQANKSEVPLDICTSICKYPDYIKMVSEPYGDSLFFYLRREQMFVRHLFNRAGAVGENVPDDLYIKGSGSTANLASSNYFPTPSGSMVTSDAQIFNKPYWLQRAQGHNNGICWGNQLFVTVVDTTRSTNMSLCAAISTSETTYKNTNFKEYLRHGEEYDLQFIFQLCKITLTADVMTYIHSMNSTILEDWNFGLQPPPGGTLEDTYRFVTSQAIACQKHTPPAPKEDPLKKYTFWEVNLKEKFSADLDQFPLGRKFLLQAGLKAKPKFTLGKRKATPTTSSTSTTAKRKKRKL

[3] = biological target: T3, HPV51L1 (human papillomavirus type 51, UniProt P26536 1-504)
T3 sequence: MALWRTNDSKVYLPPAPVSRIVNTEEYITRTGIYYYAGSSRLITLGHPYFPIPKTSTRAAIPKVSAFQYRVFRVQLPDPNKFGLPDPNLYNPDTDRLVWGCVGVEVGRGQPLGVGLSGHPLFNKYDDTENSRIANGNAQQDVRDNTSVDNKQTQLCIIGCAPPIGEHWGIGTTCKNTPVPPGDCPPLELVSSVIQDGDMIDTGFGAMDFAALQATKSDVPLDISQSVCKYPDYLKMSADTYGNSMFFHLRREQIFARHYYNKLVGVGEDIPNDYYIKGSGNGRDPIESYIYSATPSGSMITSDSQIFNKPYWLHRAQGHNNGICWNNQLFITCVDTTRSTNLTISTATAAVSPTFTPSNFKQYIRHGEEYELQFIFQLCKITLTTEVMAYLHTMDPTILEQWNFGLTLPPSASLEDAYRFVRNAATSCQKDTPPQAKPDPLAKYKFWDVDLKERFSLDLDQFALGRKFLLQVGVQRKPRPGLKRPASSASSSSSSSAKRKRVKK

[4] = biological target: T4, HPV31L1 (human papillomavirus type 31, UniProt P17388 1-504)
T4 sequence: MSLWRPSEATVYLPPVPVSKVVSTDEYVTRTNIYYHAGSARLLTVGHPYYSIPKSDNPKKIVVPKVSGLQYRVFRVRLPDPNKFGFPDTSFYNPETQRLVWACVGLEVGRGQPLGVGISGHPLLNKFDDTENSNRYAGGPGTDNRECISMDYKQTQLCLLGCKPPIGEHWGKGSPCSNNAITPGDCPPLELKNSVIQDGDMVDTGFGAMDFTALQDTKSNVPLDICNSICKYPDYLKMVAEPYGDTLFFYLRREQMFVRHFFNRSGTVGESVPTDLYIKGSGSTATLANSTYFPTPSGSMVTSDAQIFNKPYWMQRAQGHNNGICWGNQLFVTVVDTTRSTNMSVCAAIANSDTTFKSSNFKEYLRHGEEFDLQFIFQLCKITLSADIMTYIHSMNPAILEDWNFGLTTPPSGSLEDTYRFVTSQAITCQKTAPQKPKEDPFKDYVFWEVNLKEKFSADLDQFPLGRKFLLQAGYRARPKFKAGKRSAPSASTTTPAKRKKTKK

[5] = biological target: T5, HPV6L1 (human papillomavirus type 6, UniProt P69899 1-500)
T5 construct: also called HPV 6 L1原液
T5 sequence: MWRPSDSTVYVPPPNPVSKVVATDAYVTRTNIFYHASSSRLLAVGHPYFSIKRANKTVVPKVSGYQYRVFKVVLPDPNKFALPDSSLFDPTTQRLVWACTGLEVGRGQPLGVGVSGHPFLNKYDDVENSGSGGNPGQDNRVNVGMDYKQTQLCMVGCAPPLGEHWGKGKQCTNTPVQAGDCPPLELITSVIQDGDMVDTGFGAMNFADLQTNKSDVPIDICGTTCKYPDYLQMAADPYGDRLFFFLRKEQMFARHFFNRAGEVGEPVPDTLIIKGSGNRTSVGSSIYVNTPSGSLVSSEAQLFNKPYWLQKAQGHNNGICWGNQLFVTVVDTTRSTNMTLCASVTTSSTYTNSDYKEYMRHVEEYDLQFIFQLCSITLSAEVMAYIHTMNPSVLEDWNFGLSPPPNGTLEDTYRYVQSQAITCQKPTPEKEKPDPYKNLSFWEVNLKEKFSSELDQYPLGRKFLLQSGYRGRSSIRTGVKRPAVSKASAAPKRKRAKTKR

B1: HPV 59编号为30单克隆抗体 (antibody, V domains shown)
VH: QIQLVQSGPELKKPGETVKISCKASGYTFTDYSMHWVKQAPGKGLKWMGWINTETGEPTYADDFKGRFAFSLETSASTAYLQINNLKIEDTATYFCTRDGYVWYFDVWGAGTTVTVSS
VL: QIVLSQSPAILSASPGEKVTMTCRASSSVNYMHWYQQKPGSSPKPWIYATSNLASGVPARFSGSGSGTSYSLTISRVEAEDAATYYCQQWSSNPIFTFGSGTKLEIK
notes: Mouse hybridoma antibody tested as cell supernatant; also called 59H30
B1: no binding (tested: 原液40μg/ml; 细胞上清1:100) [1]; no binding (tested: 原液40μg/ml; 细胞上清1:100) [2]; no binding (tested: 原液40μg/ml; 细胞上清1:100) [3]. B1: no binding (tested: 原液40μg/ml; 细胞上清1:100) [4]; no binding (tested: 原液40μg/ml; 细胞上清1:100) [5].
